The record followed here is patent publication US20040259165A1 (published 2004).

The target in the assay is T1, DsRed fused to the Gal4 DNA binding domain (pGBT9) (Discosoma species).
T1 construct: range 1-147; also called DsRed-prey
As to the kind of experiment: yeast two hybrid in HF7C (HIS3 and LacZ reporters). Here is the method:
Yeast two hybrid assays were also performed. […] Alternatively, the yeast were grown on filters placed on plates lacking tryptophan and leucine to select for the bait and prey plasmids. After overnight growth, the filters were removed from the plates, frozen in liquid nitrogen, thawed, and incubated in X-gal overnight at 30° C. and two days at 4° C. to test for β-galactosidase activity (assayed by blue color development).

B1: DsRed fused to the Gal4 activation domain (pGAD GH) (other)
chain: ANFNQSGNIADSSLSFTFTNSSNGPNLITTQTNSQALSQPIASSNVHDNFMNNEITASKIDDGNNSKPLSPGWTDQTAYNAFGITTGMFNTTTMDDVYNYLFDDEDTPPNPKKEMRSSKNVIKEFMRFKVRMEGTVNGHEFEIEGEGEGRPYEGHNTVKLKVTKGGPLPFAWDILSPQFQYGSKVYVKHPADIPDYKKLSFPEGFKWERVMNFEDGGVVTVTQDSSLQDGCFIYKVKFIGVNFPSDGPVMQKKTMGWEASTERLYPRDGVLKGEIHKALKLKDGGHYLVEFKSIYMAKKPVQLPGYYYVDSKLDITSHNEDYTIVEQYERTEGRHHLFL
notes: range 768-881; also called DsRed-bait
Consider B1, for which the binding result is “binds”.
